No end group written: not given here.
Assays:
[1] = target: IGS4A (IGS4APROT), human G-protein coupled receptor IGS4, polymorphic form A (human, UniProt Q9GZQ4 4-415); experiment: cell-based or functional assay
[2] = target: T1, IGS4B (IGS4BPROT), human G-protein coupled receptor IGS4, polymorphic form B (human, UniProt Q9GZQ4 4-415); experiment: cell-based or functional assay
T1 chain: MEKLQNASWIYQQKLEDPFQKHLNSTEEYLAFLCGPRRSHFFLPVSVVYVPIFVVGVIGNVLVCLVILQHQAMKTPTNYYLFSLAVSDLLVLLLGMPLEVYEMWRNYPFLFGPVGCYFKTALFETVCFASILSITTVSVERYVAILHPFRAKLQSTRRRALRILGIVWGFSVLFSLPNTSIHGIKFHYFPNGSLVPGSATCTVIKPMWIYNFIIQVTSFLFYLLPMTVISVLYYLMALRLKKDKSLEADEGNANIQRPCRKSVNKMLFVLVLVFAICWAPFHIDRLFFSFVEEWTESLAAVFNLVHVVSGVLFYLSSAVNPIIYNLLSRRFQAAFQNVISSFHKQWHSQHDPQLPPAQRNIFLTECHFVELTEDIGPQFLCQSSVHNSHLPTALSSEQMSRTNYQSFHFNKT

## YKVNEYQGPVAPSGGFFLFRPRN-NH2 (peptide, UniProt P12760 144-166, looked up) [rat Neuromedin U-23]
[1]
  EC50, calcium mobilisation (FLIPR): 53 nM
  log EC50, calcium mobilisation (FLIPR): -7.27 log M
[2]
  EC50, calcium mobilisation (FLIPR): 0.05 nM
  LogEC50, calcium mobilisation (FLIPR): -10.6 log M

From patent US20040175796A1 (SOLVAY PHARMACEUTICALS B V, published 2004)
